# Results reported in patent US20110014669A1, “Production of 1,4 Butanediol in a Microorganism” (Microbia, Inc., priority 2009, published 2011).
# B1: KdcALl: Branched-chain alpha-keto acid decarboxylase from Lactococcus lactis, step A5 enzyme candidate, SEQ ID NO. 36; His-tagged when purified (protein, listed as Lactococcus lactis)
# chain: MYTVGDYLLDRLHELGIEEIFGVPGDYNLQFLDQIISREDMKWIGNANELNASYMADGYARTKKAAAFLTTFGVGELSAINGLAGSYAENLPVVEIVGSPTSKVQNDGKFVHHTLADGDFKHFMKMHEPVTAARTLLTAENATYEIDRVLSQLLKERKPVYINLPVDVAAAKAEKPALSLEKESSTTNTTEQVILSKIEESLKNAQKPVVIAGHEVISFGLEKTVTQFVSETKLPITTLNFGKSAVDESLPSFLGIYNGKLSEISLKNFVESADFILMLGVKLTDSSTGAFTHHLDENKMISLNIDEGIIFNKVVEDFDFRAVVSSLSELKGIEYEGQYIDKQYEEFIPSSAPLSQDRLWQAVESLTQSNETIVAEQGTSFFGASTIFLKSNSRFIGQPLWGSIGYTFPAALGSQIADKESRHLLFIGDGSLQLTVQELGLSIREKLNPICFIINNDGYTVEREIHGPTQSYNDIPMWNYSKLPETFGATEDRVVSKIVRTENEFVSVMKEAQADVNRMYWIELVLEKEDAPKLLKKMGKLFAEQNK
# modifications: His-tag when purified
# B2: BcaTPf: Branched-chain-amino-acid transaminase from Pseudomonas fluorescens, step A4 enzyme candidate, SEQ ID NO. 58 (protein, listed as Pseudomonas fluorescens)
# chain: MGNESINWDKLGFDYIKTDKRFLQVWKNGEWQEGTLTDDNVLHISEGSTALHYGQQCFEGLKAYRCKDGSINLFRPDQNAARMQRSCARLLMPHVPTDVFIDACKQVVKANEHFIPPYGSGGALYLRPFVIGTGDNIGVRTAPEFIFSVFCIPVGAYFKGGLVPHNFQISTFDRAAPQGTGAAKVGGNYAASLMPGSEAKKAGFADAIYLDPMTHSKIEEVGSANFFGITHDNQFITPKSPSVLPGITRLSLIELAKTRLGLDVVEGEVFIDKLDQFKEAGACGTAAVISPIGGIQYNGKLHVFHSETEVGPITQKLYKELTGVQTGDVEAPQGWIVKV
# B3: ADH6Sc: Alcohol dehydrogenase from Saccharomyces cerevisiae, step A6 enzyme candidate, SEQ ID NO. 47 (protein, listed as Saccharomyces cerevisiae)
# chain: MSYPEKFEGIAIQSHEDWKNPKKTKYDPKPFYDHDIDIKIEACGVCGSDIHCAAGHWGNMKMPLVVGHEIVGKVVKLGPKSNSGLKVGQRVGVGAQVFSCLECDRCKNDNEPYCTKFVTTYSQPYEDGYVSQGGYANYVRVHEHFVVPIPENIPSHLAAPLLCGGLTVYSPLVRNGCGPGKKVGIVGLGGIGSMGTLISKAMGAETYVISRSSRKREDAMKMGADHYIATLEEGDWGEKYFDTFDLIVVCASSLTDIDFNIMPKAMKVGGRIVSISIPEQHEMLSLKPYGLKAVSISYSALGSIKELNQLLKLVSEKDIKIWVETLPVGEAGVHEAFERMEKGDVRYRFTLVGYDKEFSD
# Key:
# [1] = test system: 5-hydroxy-2-oxopentanoate; assay: Enzyme assay, decarboxylase (step A5), aldehyde dehydrogenase linked reaction; assay type: biochemical; set-up: key: +: measureable activity detected in the assay; −: no measurable activity detected in the assay; details: BDO biosynthetic pathway step A5
# Outline: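 Crude lysates of E. coli or C. glutamicum expressing the candidate decarboxylase (0.25 mM IPTG induction) were assayed against vector-only control lysates, using natural substrate and pathway metabolite. Decarboxylation was coupled to aldehyde dehydrogenase converting the aldehyde product to acid with NAD+ reduction, followed as absorbance increase at 340 nm.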
# [2] = test system: 5-hydroxy-2-oxopentanoate (5-HOP); assay: Kinetics of purified His-tagged KdcAL1 on 5-HOP (aldehyde dehydrogenase linked reaction); assay type: biochemical
# Method: (§1) Aldehyde Dehydrogenase linked reaction: In another example of a coupled assay, the decarboxylation of a substrate is linked to the activity of an aldehyde dehydrogenase (Sigma catalog number A6338) reaction that converts the aldehyde product to a carboxylic acid with the concomitant reduction of NAD+. The overall activity of the coupled reactions is assessed spectrophotometrically by measuring the increase in absorbance at 340 nm which corresponds to the NAD+ reduction. One enzyme unit is defined as the amount of enzyme that catalyzes the decarboxylation of 1 μmol of substrate per minute.
# (§2) Standard molecular biology techniques were used to create an E. coli expression construct encoding KdcAL1 having three histidine (His) residues attached to its C-terminus. This His-tagged enzyme was over-expressed in E. coli, purified and assayed to assess its activity towards a natural substrate, 3-methyl-2-oxopentanoate (3-MOP) and its BDO pathway substrate, 5-hydroxy-2-oxopentanoate (5-HOP). The purified enzyme was assayed as described in example 3 above (step A5, Aldehyde dehydrogenase linked reaction). […] This Vmax is about 10 times lower than the rate of 3-MOP activity.
# [3] = test system: 5-hydroxy-2-oxopentanoate; assay: Bioconversion (feeding) assay, step A5; assay type: cell-based; set-up: key: +: measureable activity detected in the assay; −: no measurable activity detected in the assay; details: BDO biosynthetic pathway step A5
# Method: (§3) Bioconversion assays. The activity of a candidate enzyme towards a given substrate can also be evaluated in vivo using a simple feeding assay. A strain expressing the candidate enzyme is grown in the presence of the substrate for which activity is desired. Samples of the culture are removed periodically and the cells are removed via centrifugation. The culture supernatant is then analyzed (e.g., by LC-MS) to determine how much of the substrate has been removed and how much of a given product is present.
# (§4) The aldehyde dehydrogenase linked reaction was used for step A5.
# [4] = test system: 3-methyl-2-oxopentanoate (3-MOP); assay: Kinetics of purified His-tagged KdcAL1 on 3-MOP (aldehyde dehydrogenase linked reaction); assay type: biochemical; details: substrate 3-MOP; purified His-tagged enzyme
# Method: as §1, §2
# [5] = test system: 5-hydroxy-2-oxopentanoate; assay: In vitro substrate conversion assay, step A5; assay type: biochemical; set-up: key: +: measureable activity detected in the assay; −: no measurable activity detected in the assay; details: BDO biosynthetic pathway step A5
# Method: (§5) In Vitro Substrate Conversion. Most of the enzyme assays described above are based on recording changes in absorbance at a given wavelength. In addition to such spectrophotometric readouts, these assays can also be analyzed by more direct methods using an endpoint assay where the reaction is terminated after a given period of time and the mixture is analyzed via HPLC or LC-MS methods.
# as §4
# 5-hydroxy-L-norvaline [6] = assay: In vitro substrate conversion assay, step A4; assay type: biochemical; set-up: key: +: measureable activity detected in the assay; −: no measurable activity detected in the assay; details: BDO biosynthetic pathway step A4
# Method: as §5, §4
# 5-hydroxy-L-norvaline [7] = assay: Enzyme assay, aminotransferase (step A4), cell lysates; assay type: biochemical; set-up: key: +: measureable activity detected in the assay; −: no measurable activity detected in the assay; details: BDO biosynthetic pathway step A4
# Method: (§6) Enzyme expression and crude lysate preparation. The enzymatic activity of each candidate enzyme is evaluated, first in E. coli and subsequently in C. glutamicum. It will be apparent to one of skill in the art that the expression and lysate preparations may need to be modified depending on the host cell and recombinant gene of interest.
# (§7) E. coli: E. coli strains transformed with expression clones, for example, pUC18 or MB4124 based clones having a medium strong constitutive promoter regulating the recombinant gene of interest, are grown aerobically in LB medium (Difco) containing the appropriate antibiotic(s). At an OD600 of 0.5, IPTG is added to a final concentration of 0.25 mM. The cultures are grown to a final OD600 of 1.5 at which time the cells are collected and harvested by centrifugation. Cell pellets are resuspended in BugBuster (Novagen) reagent containing benzonase and lysozyme. Alternatively, E. coli strains transformed with expression clones, are grown overnight aerobically at 37° C. in BHI containing the appropriate antibiotic(s). 300 μL of fresh overnight culture is used to inoculate 2.7 mL BHI containing 0.25 mM IPTG and the appropriate antibiotic. The cultures are grown aerobically for 4-5 hours at 37° C. at which time the cells are collected and harvested by centrifugation. Cell pellets are frozen at −80° C. for at least 15 minutes, then thawed and resuspended in BugBuster (Novagen) reagent. Lysis and lysate collection are performed according to the manufacturer's instructions and, for example, may involve use of a sonicator and/or French press. Cleared lysates are stored on ice until enzyme assays are performed.
# C. glutamicum: C. glutamicum strains transformed with MB4124 expression clones containing the recombinant gene of interest are grown aerobically in BHI broth supplemented with the proper antibiotic(s). At an OD600 of 0.5, IPTG is added to a final concentration of 0.25 mM. The cultures are grown to a final OD600 of 1.5 at which time the cells are collected and harvested by centrifugation. The pellet is washed once in one volume of water and resuspended in lysis buffer (1.0 ml 1.0 M HEPES buffer, pH 7.5, 0.5 ml 1M KOH, 10 μl 0.5M EDTA, protease inhibitor cocktail, water to 5 ml; the final pH will vary depending on the individual enzyme being tested) and one volume of 0.1 mm acid washed glass beads. The mixture is repeatedly alternately vortexed and held on ice for 15 seconds, eight times. After centrifugation for 5 min at 4,000 rpm, the supernatant lysate is removed and respun for 20 min at 10,000 rpm. Alternatively, C. glutamicum strains transformed with MB4124 expression clones containing the recombinant gene of interest are grown aerobically overnight in BHI broth supplemented with the proper antibiotic(s). Five mL of fresh overnight culture is used to inoculate 200 mL BHI containing 0.25 mM IPTG and the appropriate antibiotic. The cultures are grown aerobically at 30° C. for 5-7 hours at which time the cells are collected and harvested by centrifugation at 4° C. The pellet is resuspended in 15 mL ice cold 39 mM KH2PO4, 61 mM K2HPO4, 0.5 M KCl and lysed using a BioSpec BeadBeater and following the manufacturer's instructions. […]
# (§8) Protein Assays. Protein concentrations in lysates are determined according to the methods of Bradford et al. (Anal. Biochem. 72:248-254 [1976]) or by the method of Smith et al. (Anal. Biochem. 150(1):76-85 [1985]) and lysates are assayed according to the methods below. […]
# 5-hydroxy-L-norvaline [8] = assay: Bioconversion (feeding) assay, step A4; assay type: cell-based; set-up: key: +: measureable activity detected in the assay; −: no measurable activity detected in the assay; details: BDO biosynthetic pathway step A4
# Method: as §3, §4
# 4-hydroxybutanal [9] = assay: In vitro substrate conversion assay, step A6; assay type: biochemical; set-up: key: +: measureable activity detected in the assay; −: no measurable activity detected in the assay; details: BDO biosynthetic pathway step A6
# Method: as §5, §4
# 4-hydroxybutanal [10] = assay: Bioconversion (feeding) assay, step A6; assay type: cell-based; set-up: key: +: measureable activity detected in the assay; −: no measurable activity detected in the assay; details: BDO biosynthetic pathway step A6
# Method: as §3, §4
# 4-hydroxybutanal [11] = assay: Enzyme assay, oxidoreductase (step A6), cell lysates; assay type: biochemical; set-up: key: +: measureable activity detected in the assay; −: no measurable activity detected in the assay; details: BDO biosynthetic pathway step A6
# Method: as §6
# as §7, with “performed. […]” for “performed.”
# as §8
molecule,measurement,setting,value
B1,Enzyme Assay,[1],+
same,Vmax for 5-HOP lower than the rate of 3-MOP activity,[2]; 5-HOP versus 3-MOP,about 10 times
same,Km,"[2]; substrate 5-HOP, purified His-tagged enzyme",49 mM
same,Vmax,"[2]; substrate 5-HOP, purified His-tagged enzyme, FIG. 24",approximately 0.15 U/mg
same,Bioconversion Assay,[3],+
same,Km,[4],1.3 mM
same,In Vitro Substrate Conversion Assay,[5],+
B2,In Vitro Substrate Conversion Assay,5-hydroxy-L-norvaline [6],+
same,Enzyme Assay,5-hydroxy-L-norvaline [7],+
same,Bioconversion Assay,5-hydroxy-L-norvaline [8],+
B3,In Vitro Substrate Conversion Assay,4-hydroxybutanal [9],+
same,Bioconversion Assay,4-hydroxybutanal [10],+
same,Enzyme Assay,4-hydroxybutanal [11],+
